Data on one molecule can be found in US20080131419A1.

Series [1] addresses actin filaments (F-actin) of lily pollen tubes (lily (Lilium grandiflorum / Lilium longiflorum cv. Osnat)). The experiment in a line: cell-based or functional assay.
In series [2] the target is actin filaments (F-actin) of lily pollen tubes.

B1: Aspergillus niger B1 extracellular RNase (RNase B1) (protein)
chain: TIDTCSSDSPLSCQTDNEASCCFNSPGGSLLQTQFWDYDPSDGPSGSWTIHGLWPDNCDGTYQEYCDESREYSNITSILEAQNRTELLSYMKEYWPDYEGADEDESFWEHEWNKHGTCINTIEPSCYTDYYAQEEVGDFFQQVVDLFKTLDSYTALSDAGITPSEDATYKLSDIEDALAAIHDGYPPYVGCEDGALSQLYYYFNVKGSAIGGTYVASERLEDSNCKDSGIKYPPKYSSSKKIYGSSL
In series [1], B1 yielded an inhibition of lily pollen tube elongation, 1 uM enzymatically heat-inactivated RNase B1 (EI-RNase B1) of 55%. Also, in series [2], the “actin filament distribution in pollen tubes (TRITC-phalloidin staining)” value was “in RNase-treated pollen tubes masses of F-actin were accumulated at the tip cell wall”; the “lily pollen tube length in vitro, RNase B1 100 units/ml (16 ug/ml), 2 h (control about 300 um)” value is “reached only 160 µm in length”; the “lily pollen tube length in vitro, autoclaved RNase B1 (control about 300 um)” value was “Boiling or autoclaving the RNase yielded pollen tubes of 130 and 170 µm in length, respectively”; the “lily pollen tube length in vitro, boiled RNase B1 (control about 300 um)” value is “Boiling or autoclaving the RNase yielded pollen tubes of 130 and 170 µm in length, respectively”.
